We go through 1 substance from US20110294729A1, “Novel Insulin Analogues” (Novo Nordisk A/S, priority 2008, published 2011).

Experiment [1] addresses human insulin receptor B-isoform (human) (UniProt P06213). Description: SPA competition; ratio of the hIR-B column to the hIR-A column.
Experiment [2] addresses human insulin receptor A-isoform (human) (UniProt P06213). The experiment is described as follows: SPA competition against [125I]A14Tyr-insulin, solubilized hIR-A, analogue in yeast supernatant.
Experiment [3] concerns the target human insulin receptor B-isoform (human) (UniProt P06213). The experiment is described as follows: SPA competition against [125I]A14Tyr-insulin, solubilized hIR-B, analogue in yeast supernatant.

Regarding “[A8H, B25H, B27E, desB30] human insulin (ligand)”, in experiment [1], the Ratio B/A (relative hIR-B affinity over relative hIR-A affinity) stood at 2.1. For the same substance, the relative affinity [% of HI] in experiment [2] was 67 % of HI; in experiment [3], 140 % of HI.
